The results in this text go back to US20200255503A1.

One may read the Kd as the free concentration of one partner at which half of the binding sites on the other are occupied at equilibrium, for simple one-to-one binding. A high value points to weaker binding. For orientation: koff means the rate constant with which the complex falls apart. Usually kon stands for a measure of how fast the partners come together.

The target in the test is natural Fel d1 (cat (Felis domesticus)) (UniProt P30438). Nature of the test: SPR, mAb captured, nFel d1 injected, 25 C.

Substitutions are numbered along the chain they refer to.

B1: H4H2597B (antibody, human IgG4, V domains shown)
VH: EVQLVESGGGLVQPGGSLRLSCAVSGFTFSNYAMNWVRQAPGKGLEWVSVISDSGRSTYYADSVKGRFTISRDNSKNTLYLQMNSLRAEDTAVYFCAKRYNWNLHYFDYWGQGTTVTVSS
VL: EIVLTQSPDFQSVTPKEKVTITCRASQSIGGSLHWYQQKPDQSPKLLIKYASQSFSGVPSRFSGSGSGTDFTLTINSLEAEDAATYYCLQSSSLRTFGQGTKVEIKR
B1: the Kd turned out to be 0.65 nM, the koff came out at 0.0015 s⁻¹, the on-rate (kon) was 2.31e+06 M⁻¹ s⁻¹ and the t1/2 was 8 min.

B2: H4H2606B (antibody, human IgG4, V domains shown)
VH: EVQLVESGGGLVKPGGSLRLSCAASGFTFSDYYMNWIRQAPGKGLEWVSYISSSGNSIYYADSVKGRFTISRDNAKNSLFLQMSSLRAEDTAVYYCARDGRYNDRRRGYYWGQGTLVTVSS
VL: B1 VL with L4M, G31S
The molecule B2 gave a Kd of 0.765 nM, a dissociation rate constant (koff) of 0.000707 s⁻¹, an on-rate (kon) of 924000 M⁻¹ s⁻¹ and a t1/2 of 16 min.

B3: H2M1233N (antibody, mouse IgG2, V domains shown)
VH: QVVLVESGGGVVQPGRSLRLSCAASGFTFSSYGMHWVRQAPGKGLEWVAVIWYDGSNKYYVDSVKGRFTISRDNSNNTIYLQMNSLRAEDTAVYYCARSLIPVAGTDPIFGYWGQGTLVTVSS
VL: DIQMTQSPSTLSASVGDRVTITCRASQSVSSWLAWYQQKPGKAPKLLIFKASGLESGVPFRFSGSGSGTEFTLTISSLQPDDFATYYCQQYNTYSPTFGQGTKVEIK
B3 showed a dissociation constant Kd of 1.4 nM, a dissociation rate constant (koff) of 0.000353 s⁻¹, a kon of 253000 M⁻¹ s⁻¹ and a t1/2 of 33 min.

B4: H2M1237N (antibody, mouse IgG2, V domains shown)
VH: B3 VH with N57I, V61A, S99A
VL: B3 VL with A51T
With B4, the Kd is 0.982 nM, the koff was 0.000276 s⁻¹, the kon was found to be 281000 M⁻¹ s⁻¹ and the t1/2 came to 42 min.

B5: H2M1242N (antibody, mouse IgG2, V domains shown)
VH: EVQLVESGGGLVRPGGSLRLSCAASGFTFTSYAMNWVRQAPGKGLEWVSSISSYSSYIYIADSVKGRFTLSRDNAKNSLYLQMHSLRPEDTAVYFCAREGYSAYSYFDFWGRGTLVTVSS
VL: B3 VL with S30I, F49H, K50R, G53S, F60S, S77G, S95F, I106V
As to B5, the Kd stood at 3.14 nM, the koff is 0.000604 s⁻¹, the kon amounted to 192000 M⁻¹ s⁻¹ and the t1/2 amounted to 19 min.

B6: H4H2797P (antibody, human IgG4, V domains shown)
VH: QVQLVESGGGVVLPGRSLRLSCAASGFTFSSYLMYWVRQAPGKGLEWVAVIWYDGSNKFYGDSVKGRFTISRDNSKNTLYLQMNSLRAEDTAVYYCARDNGNSGYEDSWNAFDIWGQGTMVTVSS
VL: DIQMTQSPSSLSASVGDRVTITCRASQDIYNYLAWFQQKPGKAPKSLIYAASSLQTGVPSQFSGSGSGTDFTLTISSLQPEDFATYYCQQYNNYPFTFGPGTKVDIK
With B6, the Kd is 35.4 nM, the koff came to 0.00713 s⁻¹, the kon turned out to be 202000 M⁻¹ s⁻¹ and the t1/2 was 2 min.

B7: H1M1241N (antibody, V domains shown)
VH: EVQLVESGGGLVKPGGSLRLSCAASGFTFSSYSMNWVRQAPGKGLEWVSSISSRSSYIYYADSVKGRFTISRDNAKNSLYLQMNSLRAEDTAVYYCARDHIVVVPGASYYYYGMDVWGQGTTVTVSS
VL: DIQMTQSPSSLSASVGDRVTITCRASQGIRNDLGWYQQKPGKAPKRLISAASSLQSGVPSRFSGSGSGTEFTLTISSLQPEDFATYYCLQHNSYPLTFGGGTKVEIK
On to B7, for which the equilibrium dissociation constant (Kd) was 3.63 nM, the koff was determined as 0.000662 s⁻¹, the association rate constant (kon) is 182000 M⁻¹ s⁻¹ and the t1/2 came to 17 min.

B8: H4H2590S (antibody, human IgG4, V domains shown)
VH: QVQLVESGGGLVKPGGSLRLSCAASGFTFSDYYMNWIRQAPGKGLEWISYISSGGSTTYYADSVKGRFTISRDNAKNSLYLQMNSLRAEDTAVYYCARDGKYNTSPGDYWGQGTLVTVSS
VL: EIVLTQSPDFQSVTPKEKVTITCRASQSIGSSLHWYQQKPDQSPKLLIKYASQSFSGVPSRFSGSGSGTDFTLTINSLEAEDAATYYCLQSSSLRTFGQGTKVDIK
Consider B8, for which the Kd is 0.655 nM, the koff came to 0.000802 s⁻¹, the kon came out at 1.23e+06 M⁻¹ s⁻¹ and the t1/2 is 14 min.

B9: H4H2607B (antibody, human IgG4, V domains shown)
VH: B8 VH with Q1E, I51L, G54S, T57A, S105V, P106A, L115T
VL: DIQLTQSPSSLSASVGDRVTITCRASQGIRNDLGWYQQKPGKAPKRLIYAASSLQSGVPSRFSGSGSGTEFTLTISSLQPEDFATYYCLQHNSYPYTFGQGTKVEIKR
B9 gave a Kd of 0.307 nM, an off-rate (koff) of 0.00091 s⁻¹, a kon of 2.97e+06 M⁻¹ s⁻¹ and a t1/2 of 13 min.

B10: H4H2608B (antibody, human IgG4, V domains shown)
VH: B8 VH with Q1E, G54S, G55D, S56D, S105V, P106A, Y109H
VL: B1 VL with L4M, T14A, S28N, G31S, S92Y, S93T
As for B10, the equilibrium dissociation constant (Kd) stood at 2.05 nM, the koff came to 0.00106 s⁻¹, the kon worked out at 516000 M⁻¹ s⁻¹ and the t1/2 stood at 11 min.

B11: H4H2592B (antibody, human IgG4, V domains shown)
VH: B8 VH with G54S, Y80F, A88G, K101R, S105V, P106A, L115T
VL: B1 VL with L4M, T14A, S28N, S92Y, S93T
B11 came in with a Kd of 0.641 nM, a dissociation rate constant (koff) of 0.000728 s⁻¹, a kon of 1.14e+06 M⁻¹ s⁻¹ and a t1/2 of 16 min.

B12: H1M1230N (antibody, V domains shown)
VH: EVQLVESGGGLVQPGGSLRLSCTASGFIFSNFWMTWVRQAPGKGLEWVANIKQDGSETYCVDSVKGRFTISRDHAKNSLFLQMNSLRAEDTAVYYCARGAGTIYYYGMDVWGQGTTVIVSS
VL: DIQMTQSPSSVSASVGDRLTITCRASQDISSWLTWYQQKPGKAPNLLIYAASGLQSGVPSRFSGSGSGTDFTLTISNLQPEDFATYYCQQANSFPLTFGQGTRLEIK
In turn, B12 returned a Kd of 3.37 nM, a koff of 0.000869 s⁻¹, a kon of 258000 M⁻¹ s⁻¹ and a t1/2 of 13 min.

B13: H2M1236N (antibody, mouse IgG2, V domains shown)
VH: QVQLQESGPGLVKPSETLSLTCTVSGGSISNYYWSWIRQPPGKGLEWIGYIYYSGRTNYNPSLKSRVTISVDTSKNQFSLKLRSVTAADTAVYYCARHRITRTADSFDYWGQGTLVTVSS
VL: DIQMTQSPSSLSASVGDRVTITCQASQDITNYLNWYQQKPGKAPKLLIYDASNLETGVPSRFSGSGSGTDFTFTISSLQPEDVATFYCHQYGDLPYTFGQGTKLEIK
Turning to B13, the Kd turned out to be 4.55 nM, the dissociation rate constant (koff) amounted to 0.00142 s⁻¹, the kon worked out at 312000 M⁻¹ s⁻¹ and the t1/2 stood at 8 min.
